From article PMC8202958 (Cell reports, 2021)
Residue numbers refer to the chain shown, from its start. Values belong to the binder of their own block, whether it stands above or below them.

What was measured:
Assay in all cases: pull-down
[1] = target: T1, GST-Sla1(1–420aa, W108S) (S. cerevisiae, UniProt P32790 1-420, W108S)
T1 sequence (looked up): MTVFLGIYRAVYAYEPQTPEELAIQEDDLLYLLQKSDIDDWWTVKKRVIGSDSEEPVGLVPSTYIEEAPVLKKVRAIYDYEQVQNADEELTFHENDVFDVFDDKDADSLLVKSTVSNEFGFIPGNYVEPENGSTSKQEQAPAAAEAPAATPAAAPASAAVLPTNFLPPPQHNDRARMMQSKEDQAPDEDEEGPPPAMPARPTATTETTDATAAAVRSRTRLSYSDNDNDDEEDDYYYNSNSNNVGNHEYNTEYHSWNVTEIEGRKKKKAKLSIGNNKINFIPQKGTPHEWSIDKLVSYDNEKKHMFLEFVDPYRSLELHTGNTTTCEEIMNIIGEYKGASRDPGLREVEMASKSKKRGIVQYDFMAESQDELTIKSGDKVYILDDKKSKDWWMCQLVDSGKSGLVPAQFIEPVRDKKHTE

[2] = target: T2, GST-Lsb3 (S. cerevisiae, UniProt P43603 1-459)
T2 sequence (looked up): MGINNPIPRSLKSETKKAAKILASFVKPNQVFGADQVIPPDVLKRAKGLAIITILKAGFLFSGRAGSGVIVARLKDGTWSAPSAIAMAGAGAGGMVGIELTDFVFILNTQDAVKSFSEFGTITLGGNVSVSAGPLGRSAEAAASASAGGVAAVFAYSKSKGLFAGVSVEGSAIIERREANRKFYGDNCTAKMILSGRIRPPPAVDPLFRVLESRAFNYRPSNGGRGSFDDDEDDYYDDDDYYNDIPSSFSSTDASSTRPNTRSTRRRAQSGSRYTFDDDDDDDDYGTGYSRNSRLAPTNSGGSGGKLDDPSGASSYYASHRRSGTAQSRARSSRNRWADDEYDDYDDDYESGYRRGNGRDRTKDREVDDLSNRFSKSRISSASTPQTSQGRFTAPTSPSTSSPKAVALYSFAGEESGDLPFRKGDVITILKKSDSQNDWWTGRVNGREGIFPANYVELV

[3] = target: T3, GST-Sla1(1–420aa) (S. cerevisiae, UniProt P32790 1-420)
T3 sequence (looked up): T1 sequence (looked up) with S108W

[4] = target: T4, GST-Ysc84 (S. cerevisiae, UniProt P32793 1-468)
T4 sequence (looked up): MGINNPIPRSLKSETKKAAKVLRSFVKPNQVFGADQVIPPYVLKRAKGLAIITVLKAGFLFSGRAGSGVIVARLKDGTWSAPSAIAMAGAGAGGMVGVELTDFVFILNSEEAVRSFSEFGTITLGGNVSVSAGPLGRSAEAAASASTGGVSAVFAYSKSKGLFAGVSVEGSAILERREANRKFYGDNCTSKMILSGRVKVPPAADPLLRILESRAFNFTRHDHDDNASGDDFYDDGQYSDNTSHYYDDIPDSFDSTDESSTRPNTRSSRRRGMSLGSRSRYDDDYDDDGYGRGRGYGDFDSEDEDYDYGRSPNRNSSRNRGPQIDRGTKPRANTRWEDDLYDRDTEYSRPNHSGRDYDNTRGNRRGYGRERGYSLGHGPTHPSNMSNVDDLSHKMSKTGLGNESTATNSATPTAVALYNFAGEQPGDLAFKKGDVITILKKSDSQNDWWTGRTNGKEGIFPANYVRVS

[5] = target: T5, GST-Sla1(1–420aa, W41S) (S. cerevisiae, UniProt P32790 1-420, W41S)
T5 sequence (looked up): T1 sequence (looked up) with W41S, S108W

- binding result [1]: binds
- binding result [2]: binds
- binding result [3]: binds
- binding result [4]: binds
- binding result [5]: binds
B1: MBP-Ecm25(361–535aa) (domain or fragment, S. cerevisiae, UniProt P32525 361-535, looked up)
chain: EISSPPSSVSSSSTIPVLPKPRKSSPTRYSELGCLTLPRSRSPSPQRSVTSPTYTPVALQNTPVLKPKSSSRNVSSPSFNAKPPLPIKAVTRPQLSLTSNSNTDLALASSSTDTLSSPTKTPSADSLPLSNSSTDLTISDNIKEMVKDEPAKDKNSVETDIFVQQFESLTLVQNA

- binding result [1]: binds
- binding result [2]: binds
- binding result [3]: binds
- binding result [4]: binds
- binding result [5]: binds
B2: MBP-Ecm25-C-term (361–599aa) (domain or fragment, S. cerevisiae, UniProt P32525 361-599, looked up)
chain: EISSPPSSVSSSSTIPVLPKPRKSSPTRYSELGCLTLPRSRSPSPQRSVTSPTYTPVALQNTPVLKPKSSSRNVSSPSFNAKPPLPIKAVTRPQLSLTSNSNTDLALASSSTDTLSSPTKTPSADSLPLSNSSTDLTISDNIKEMVKDEPAKDKNSVETDIFVQQFESLTLVQNAKIKKFDKELQEKKKKNETTSKTADKFSQKGYSDIKASNKVSRLAALYEERLQGLQVMNEMKQRW
